The results in this text go back to publication PMC9676403, “Crystal structure of the collagen prolyl 4-hydroxylase (C-P4H) catalytic domain complexed with PDI: Toward a model of the C-P4H α2β2 tetramer” (The Journal of Biological Chemistry, 2022).

First the molecules themselves.
B1: α-subunit of mature human C-P4H-II (enzyme, UniProt O15460-1 22-535, looked up)
chain: EFFTSIGHMTDLIYAEKELVQSLKEYILVEEAKLSKIKSWANKMEALTSKSAADAEGYLAHPVNAYKLVKRLNTDWPALEDLVLQDSAAGFIANLSVQRQFFPTDEDEIGAAKALMRLQDTYRLDPGTISRGELPGTKYQAMLSVDDCFGMGRSAYNEGDYYHTVLWMEQVLKQLDAGEEATTTKSQVLDYLSYAVFQLGDLHRALELTRRLLSLDPSHERAGGNLRYFEQLLEEEREKTLTNQTEAELATPEGIYERPVDYLPERDVYESLCRGEGVKLTPRRQKRLFCRYHHGNRAPQLLIAPFKEEDEWDSPHIVRYYDVMSDEEIERIKEIAKPKLARATVRDPKTGVLTVASYRVSKSSWLEEDDDPVVARVNRRMQHITGLTVKTAELLQVANYGVGGQYEPHFDFSRNDERDTFKHLGTGNRVATFLNYMSDVEAGGATVFPDLGAAIWPKKGTAVFWYNLLRSGEGDYRTRHAACPVLVGCKWVSNKWFHERGQEFLRPCGSTEVD
notes: collagen prolyl 4-hydroxylase α(II) subunit, human, isoform-IIb splice variant (exon 12b); the complex is called mature C-P4H-II; codon-optimized gene; also called α(II); Hs-α(II); source: E. coli K12, polycistronic CyDisCo plasmid, coexpressed with β/PDI and yeast Erv1; purified (Talon IMAC, HiTrap Q, Superdex 200); not shown: His6, N-terminal, kept
B2: protein disulfide isomerase, the β-subunit of C-P4H (enzyme)
chain: not shown
notes: protein disulfide isomerase, human, called the intact or complete β/PDI subunit, without a tag; codon-optimized gene; the crystal model starts at Glu21; Made in the E. coli cytoplasm, so probably without the signal peptide (my surmise); also called PDI; β/PDI subunit; source: E. coli K12, polycistronic CyDisCo plasmid, coexpressed with the α-subunit and yeast Erv1; co-purified with the His-tagged …

Data set [1] deals with the molecule itself. As to the kind of experiment: SEC-MALS; purified, frozen-thawed co-expressed complex on Superdex 200 Increase 10/300 GL in SEC buffer (50 mM Tris, pH 7.8, 50 mM NaCl, 100 mM glycine). In general terms: In gel filtration, larger molecules generally elute earlier.
For data set [2], the target named is B1. Nature of the data set: co-purification; His6-tagged α-subunit coexpressed with untagged β/PDI in E. coli (CyDisCo); Talon IMAC from the lysate, HiTrap Q, Superdex 200, 4 °C, Tris pH 7.8; subunits found in the purified sample by SDS-PAGE and MS. The following applies: partners not purified.
For data set [3], the target named is B2. As to the kind of experiment: SEC-MALS; purified, frozen-thawed co-expressed complex on Superdex 200 Increase 10/300 GL in SEC buffer (50 mM Tris, pH 7.8, 50 mM NaCl, 100 mM glycine). The conditions noted are these: both partners purified.
Data set [4] addresses B2. As to the kind of experiment: co-purification; His6-tagged α-subunit coexpressed with untagged β/PDI in E. coli (CyDisCo); Talon IMAC from the lysate, HiTrap Q, Superdex 200, 4 °C, Tris pH 7.8; subunits found in the purified sample by SDS-PAGE and MS. The conditions noted are these: partners not purified.

For B1, the binding result in data set [1] is given as “binds”.
As to B2, in data set [2], the binding result is listed as “binds”.

B3: α-subunit of human C-P4H-II truncated to the catalytic (CAT) domain, construct C-P4H-II-Δ281 (domain or fragment, UniProt O15460-1 282-535, looked up)
chain: DYLPERDVYESLCRGEGVKLTPRRQKRLFCRYHHGNRAPQLLIAPFKEEDEWDSPHIVRYYDVMSDEEIERIKEIAKPKLARATVRDPKTGVLTVASYRVSKSSWLEEDDDPVVARVNRRMQHITGLTVKTAELLQVANYGVGGQYEPHFDFSRNDERDTFKHLGTGNRVATFLNYMSDVEAGGATVFPDLGAAIWPKKGTAVFWYNLLRSGEGDYRTRHAACPVLVGCKWVSNKWFHERGQEFLRPCGSTEVD
notes: residues 534-535 are named as the C-terminal residues; codon-optimized gene; Linked to PDI in the crystal by intersubunit disulfide bridges (Cys311-Cys397, Cys529-Cys53); also called Hs-α(II) from D282; source: E. coli K12, polycistronic CyDisCo plasmid, coexpressed with β/PDI and yeast Erv1; purified (Talon IMAC, HiTrap Q, Superdex 200)
Regarding B3, the binding result in data set [3] is on record as “binds”.

B4: α-subunit of human C-P4H-II lacking the N-terminal dimerization domain, construct C-P4H-II-Δ140 (domain or fragment, UniProt O15460-1 141-535, looked up)
chain: DTYRLDPGTISRGELPGTKYQAMLSVDDCFGMGRSAYNEGDYYHTVLWMEQVLKQLDAGEEATTTKSQVLDYLSYAVFQLGDLHRALELTRRLLSLDPSHERAGGNLRYFEQLLEEEREKTLTNQTEAELATPEGIYERPVDYLPERDVYESLCRGEGVKLTPRRQKRLFCRYHHGNRAPQLLIAPFKEEDEWDSPHIVRYYDVMSDEEIERIKEIAKPKLARATVRDPKTGVLTVASYRVSKSSWLEEDDDPVVARVNRRMQHITGLTVKTAELLQVANYGVGGQYEPHFDFSRNDERDTFKHLGTGNRVATFLNYMSDVEAGGATVFPDLGAAIWPKKGTAVFWYNLLRSGEGDYRTRHAACPVLVGCKWVSNKWFHERGQEFLRPCGSTEVD
notes: collagen prolyl 4-hydroxylase α(II) subunit, human, isoform-IIb splice variant (exon 12b), first 140 residues deleted, starts at Asp141; holds the PSB and CAT domains; codon-optimized gene; also called PSB and CAT; Hs-α(II) from D141; source: E. coli K12, polycistronic CyDisCo plasmid, coexpressed with β/PDI and yeast Erv1; purified (Talon IMAC, HiTrap Q, Superdex 200); not shown: His6, …
In the case of B4, in data set [4], the binding result is listed as “binds”.
